Where two headings read alike, the source gives them in different places.
What was measured:
[1] = Stability in aqueous solution; type: physicochemical; conditions: reaction mixture at 25 °C up to 24 h; sampled 1, 4, 24 h; RP-HPLC
Experimental: (§1) The stability of radiolabeled peptide in aqueous solution was evaluated by incubation of the reaction mixture at room temperature (25 °C)up to 24 h.Stability in human serum at 37 °C was tested in parallel after adding 100 μL of reaction mixture to 1ml of fresh human serum. The incubation mixtures were sampled at 1, 4, and 24 h time points. Serum samples (100-200 μL) were treated with ethanol (200-400 μL) and centrifuged (4000 g, 5 min, 4 °C) to precipitate the serum proteins. 20-100 μL aliquots from the supernatant were separated to assess the degradation of ^99mTc labeled peptide by RP-HPLC (method I). 100 μL aliquots from the 25 °C incubated mixture were passed through a […] to eliminate possible ^99mTc colloids and then, 5-20 μL of filtrate were analyzed by RP-HPLC as well.

[2] = Protein binding in human serum; type: in vitro ADME; conditions: fresh human serum, 2 h incubation; ethanol precipitation, centrifugation; γ-counter
Experimental: For protein binding estimation, freshly labeled peptide solution was filtered through a […] and a 100 μL aliquot of filtrate was incubated in 1ml fresh human serum for 2 h. After ethanol treatment and centrifugation (4000 g, 5 min, 4 °C), all the supernatant was completely removed. A slight wash with 1x phosphate-buffered saline (PBS) was done on the surface of the sediment and the eluate was added to the removed supernatant. The total activity of the supernatant and the activity of the sediment were measured by well-type NaI γ-counter to determine the percentage of radio peptide bound or transferred to albumin and other serum proteins.

[3] = Biodistribution in tumor bearing nude mice; type: in vivo; conditions: male, nude, mouse, iv, total radioactivity, mean ± SEM; for tissue uptake at 1 h: 1 h p.i.; for tissue uptake at 4 h: 4 h p.i.
Experimental: (§2) Male albino mice in a weight range of18-24 g were used for normal mice treatments and malenude mice (6 to 8 weeks old) were used for in-vivo tumor treatments. The mice were housed at controlled room temperature (25 °C) in a 12 h light/12 h dark schedule. They were kept in standard cages with free access to food and water except during the experiments. The nude mice were grown and kept in isolated sterile condition. All animal experiments were carried out in compliance with our institutional ethical guidelines.
(§3) U373MG cells were grown and harvested by trypsinization. Cells were washed twice with fresh RPMI medium containing 20% FBS and centrifuged for 5 min at 200 g. Pellets were resuspended in RPMI medium containing 20% FBS. A 100 µL suspension of 4 × 10^6 cells was subcutaneously injected on the right flank of each nude mouse. After four weeks, the size of inducted tumors was suitable for biodistribution study and mice were injected via the tail vein with radiolabeled peptide in two groups in the presence and absence of block. They sacrificed at 1 h and 4 h time points to assay the biodistribution. They were dissected and % ID/g of tissues was measured as described above. Finally, tumor-to-organ ratios were calculated.

U373MG tumor = test: Biodistribution in tumor bearing nude mice; type: in vivo
Experimental: as §2, §3

[4] = Log P, octanol/PBS partition; type: physicochemical; conditions: shake-flask octanol/PBS, vortexed 10 min, γ-counter, three aliquots per layer averaged
Experimental: In a 2 mL microtube, 0.5 mL of the^99mTc labeled peptides in PBS was mixed with 0.5 mL of octanol. The tube was vigorously vortexed over a period of 10 min and centrifuged at 4000g for 5 min. Three aliquots of 100 μL were sampled from eachlayer and counted in theγ counter. The averaged activities from the aqueous and the octanol layers were used to calculate the log p-values. The octanol-to-water partition coefficient (Po/w) of the radiolabeled peptides was calculated by dividing the counts of the octanol phase by that of the aqueous phase.

Stability in human serum = type: in vitro ADME; conditions: fresh human serum, 37 °C, up to 24 h; sampled 1, 4, 24 h; ethanol precipitation; RP-HPLC
Experimental: as §1

[5] = U373MG tumor, U373MG tumor, blocked tumor bearing nude mice (excess SP), P< 0.01 vs nonblocked, read-out: %ID/g Tumor
[6] = blood, Blood, blocked tumor bearing nude mice (excess SP), read-out: %ID/g Blood
[7] = bone, Bone, blocked tumor bearing nude mice (excess SP), read-out: %ID/g Bone
[8] = bone, Bone, tumor bearing nude mice, i.v., n=3, read-out: %ID/g Bone
[9] = heart, Heart, blocked tumor bearing nude mice (excess SP), read-out: %ID/g Heart
[10] = heart, Heart, tumor bearing nude mice, i.v., n=3, read-out: %ID/g Heart
[11] = kidneys, Kidneys, blocked tumor bearing nude mice (excess SP), read-out: %ID/g Kidneys
[12] = kidneys, Kidneys, tumor bearing nude mice, i.v., n=3, read-out: %ID/g Kidneys
[13] = muscle, Muscle, blocked tumor bearing nude mice (excess SP), read-out: %ID/g Muscle
[14] = muscle, Muscle, tumor bearing nude mice, i.v., n=3, read-out: %ID/g Muscle
[15] = salivary gland, Salivary G., blocked tumor bearing nude mice (excess SP), read-out: %ID/g Salivary G.
[16] = salivary gland, Salivary G., tumor bearing nude mice, i.v., n=3, read-out: %ID/g Salivary G.
[17] = spleen, Spleen, blocked tumor bearing nude mice (excess SP), read-out: %ID/g Spleen
[18] = spleen, Spleen, tumor bearing nude mice, i.v., n=3, read-out: %ID/g Spleen
[19] = stomach, Stomach, blocked tumor bearing nude mice (excess SP), read-out: %ID/g Stomach
[20] = stomach, Stomach, tumor bearing nude mice, i.v., n=3, read-out: %ID/g Stomach

SMILES: CC(C)C[C@H](NC(=O)CNC(=O)[C@H](Cc1ccc(O)cc1)NC(=O)[C@H](Cc1ccccc1)NC(=O)[C@H](CCC(N)=O)NC(=O)[C@H](CCC(N)=O)NC(=O)[C@@H]1CCCN1C(=O)[C@H](CCCCN)NC(=O)[C@@H]1CCCN1C(=O)[C@H](CCCNC(=N)N)NC(=O)c1ccc(NN)nc1)C(=O)N[C@@H](CC[S+](C)[O-])C(N)=O (some centres unmarked) [^99mTc-HYNIC-Tyr^8-Met(O)^11-SP, metal not drawn]
- stability in aqueous solution [1]: good stability
- fraction unbound at 2 h [2]: 0.56
- tissue uptake at 1 h [3, 5]: 1.36 ± 0.19 %ID/g
- tissue uptake at 4 h [3, 5]: 0.54 ± 0.08 %ID/g
- tissue uptake at 4 h ([3]; U373MG tumor, U373MG tumor, tumor bearing nude mice, i.v., n=3, read-out: %ID/g Tumor): 1.26 ± 0.11 %ID/g
- tissue uptake at 1 h [3, 6]: 1.7 ± 0.14 %ID/g
- tissue uptake at 4 h [3, 6]: 0.52 ± 0.15 %ID/g
- tissue uptake at 4 h ([3]; blood, Blood, tumor bearing nude mice, i.v., n=3, read-out: %ID/g Blood): 0.41 ± 0.12 %ID/g
- tissue uptake at 1 h [3, 7]: 0.66 ± 0.07 %ID/g
- tissue uptake at 4 h [3, 7]: 0.31 ± 0.03 %ID/g
- tissue uptake at 1 h [3, 8]: 0.52 ± 0.06 %ID/g
- tissue uptake at 4 h [3, 8]: 0.27 ± 0.03 %ID/g
- tissue uptake at 1 h [3, 9]: 0.98 ± 0.09 %ID/g
- tissue uptake at 4 h [3, 9]: 0.23 ± 0.02 %ID/g
- tissue uptake at 1 h [3, 10]: 0.78 ± 0.11 %ID/g
- tissue uptake at 4 h [3, 10]: 0.25 ± 0.02 %ID/g
- tissue uptake at 1 h [3, 11]: 20.2 ± 0.61 %ID/g
- tissue uptake at 4 h [3, 11]: 13.1 ± 0.76 %ID/g
- tissue uptake at 1 h [3, 12]: 19.3 ± 0.65 %ID/g
- tissue uptake at 4 h [3, 12]: 12.8 ± 0.52 %ID/g
- tissue uptake at 1 h [3, 13]: 0.73 ± 0.09 %ID/g
- tissue uptake at 4 h [3, 13]: 0.09 ± 0.01 %ID/g
- tissue uptake at 1 h [3, 14]: 0.51 ± 0.06 %ID/g
- tissue uptake at 4 h [3, 14]: 0.08 ± 0.01 %ID/g
- tissue uptake at 1 h [3, 15]: 0.95 ± 0.06 %ID/g
- tissue uptake at 4 h [3, 15]: 0.41 ± 0.03 %ID/g
- tissue uptake at 1 h [3, 16]: 1 ± 0.09 %ID/g
- tissue uptake at 4 h [3, 16]: 0.33 ± 0.04 %ID/g
- tissue uptake at 1 h [3, 17]: 0.34 ± 0.04 %ID/g
- tissue uptake at 4 h [3, 17]: 0.26 ± 0.03 %ID/g
- tissue uptake at 1 h [3, 18]: 0.46 ± 0.07 %ID/g
- tissue uptake at 4 h [3, 18]: 0.32 ± 0.03 %ID/g
- tissue uptake at 1 h [3, 19]: 0.63 ± 0.13 %ID/g
- tissue uptake at 4 h [3, 19]: 0.26 ± 0.05 %ID/g
- tissue uptake at 1 h [3, 20]: 0.81 ± 0.12 %ID/g
- tissue uptake at 4 h [3, 20]: 0.32 ± 0.03 %ID/g
- D% Blood (U373MG tumor; Blood, decreased percent of %ID/g between 1 h and 4 h, nude mice): 69%
- %ID/g Blood (U373MG tumor; Blood, tumor bearing nude mice, 1 h p.i., i.v., mean ± SEM, n=3): 1.32±0.16 %ID/g
- D% Bone (U373MG tumor; Bone, decreased percent of %ID/g between 1 h and 4 h, nude mice): 48%
- D% Heart (U373MG tumor; Heart, decreased percent of %ID/g between 1 h and 4 h, nude mice): 68%
- D% Kidneys (U373MG tumor; Kidneys, decreased percent of %ID/g between 1 h and 4 h, nude mice): 34%
- %ID/g L. intestine (U373MG tumor; L. intestine, blocked tumor bearing nude mice (excess SP), 1 h p.i., mean ± SEM, P< 0.01 vs nonblocked): 0.73±0.14 %ID/g
- %ID/g L. intestine (U373MG tumor; L. intestine, blocked tumor bearing nude mice (excess SP), 4 h p.i., mean ± SEM, P< 0.01 vs nonblocked): 0.70±0.16 %ID/g
- D% L. intestine (U373MG tumor; L. intestine, decreased percent of %ID/g between 1 h and 4 h, nude mice): 3%
- %ID/g L. intestine (U373MG tumor; L. intestine, tumor bearing nude mice, 1 h p.i., i.v., mean ± SEM, n=3): 1.89±0.15 %ID/g
- %ID/g L. intestine (U373MG tumor; L. intestine, tumor bearing nude mice, 4 h p.i., i.v., mean ± SEM, n=3): 1.83±0.06 %ID/g
- %ID/g Liver (U373MG tumor; Liver, blocked tumor bearing nude mice (excess SP), 1 h p.i., mean ± SEM): 0.96±0.10 %ID/g
- %ID/g Liver (U373MG tumor; Liver, blocked tumor bearing nude mice (excess SP), 4 h p.i., mean ± SEM): 0.50±0.08 %ID/g
- D% Liver (U373MG tumor; Liver, decreased percent of %ID/g between 1 h and 4 h, nude mice): 37%
- %ID/g Liver (U373MG tumor; Liver, tumor bearing nude mice, 1 h p.i., i.v., mean ± SEM, n=3): 0.86±0.09 %ID/g
- %ID/g Liver (U373MG tumor; Liver, tumor bearing nude mice, 4 h p.i., i.v., mean ± SEM, n=3): 0.54±0.07 %ID/g
- %ID/g Lung (U373MG tumor; Lung, blocked tumor bearing nude mice (excess SP), 1 h p.i., mean ± SEM): 1.53±0.25 %ID/g
- %ID/g Lung (U373MG tumor; Lung, blocked tumor bearing nude mice (excess SP), 4 h p.i., mean ± SEM): 0.67±0.09 %ID/g
- D% Lung (U373MG tumor; Lung, decreased percent of %ID/g between 1 h and 4 h, nude mice): 48%
- %ID/g Lung (U373MG tumor; Lung, tumor bearing nude mice, 1 h p.i., i.v., mean ± SEM, n=3): 1.47±0.15 %ID/g
- %ID/g Lung (U373MG tumor; Lung, tumor bearing nude mice, 4 h p.i., i.v., mean ± SEM, n=3): 0.76±0.12 %ID/g
- D% Muscle (U373MG tumor; Muscle, decreased percent of %ID/g between 1 h and 4 h, nude mice): 84%
- %ID/g S. intestine (U373MG tumor; S. intestine, blocked tumor bearing nude mice (excess SP), 1 h p.i., mean ± SEM, P< 0.01 vs nonblocked): 0.83±0.12 %ID/g
- %ID/g S. intestine (U373MG tumor; S. intestine, blocked tumor bearing nude mice (excess SP), 4 h p.i., mean ± SEM, P< 0.05 vs nonblocked): 0.36±0.09 %ID/g
- D% S. intestine (U373MG tumor; S. intestine, decreased percent of %ID/g between 1 h and 4 h, nude mice): 70%
- %ID/g S. intestine (U373MG tumor; S. intestine, tumor bearing nude mice, 1 h p.i., i.v., mean ± SEM, n=3): 2.57±0.34 %ID/g
- %ID/g S. intestine (U373MG tumor; S. intestine, tumor bearing nude mice, 4 h p.i., i.v., mean ± SEM, n=3): 0.78±0.07 %ID/g
- D% Salivary G. (U373MG tumor; Salivary G., decreased percent of %ID/g between 1 h and 4 h, nude mice): 66%
- D% Stomach (U373MG tumor; Stomach, decreased percent of %ID/g between 1 h and 4 h, nude mice): 61%
- D% Tumor (U373MG tumor; U373MG tumor, decreased percent of %ID/g between 1 h and 4 h, nude mice): 62%
- %ID/g Tumor (U373MG tumor; U373MG tumor, tumor bearing nude mice, 1 h p.i., i.v., mean ± SEM, n=3): 3.36±0.26 %ID/g
- log P [4]: -3.75
- stability in human serum (Stability in human serum): good stability

Source: publication PMC4277623, “Synthesis and Preliminary Evaluation of a New ^99mTc Labeled Substance P Analogue as a Potential Tumor Imaging Agent” (Iranian Journal of Pharmaceutical Research : IJPR, 2015)
